# Test results published in the nanobody polyreactivity screen of Harvey et al. (2022).
# Assay: yeast display, Sf9 membrane polyspecificity reagent, FACS + sequencing; frameworks hold sequencing errors
# How it was run: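 After 36–48 hours of galactose induction, yeast (Saccharomyces cerevisiae BJ5465) displaying a synthetic nanobody library were stained at 4 °C for 1 hour with 10% biotinylated, detergent-solubilized Sf9 membrane reagent. Streptavidin microbeads enriched the stained cells before FACS sorting into low and high (top ~1%) gates on anti-HA and streptavidin fluorescence. Each clone's polyreactivity label reflects its gate of origin.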
row,Sequence,polyreactivity (PSR sort gate)
1,QVQLQESGGGLVQAGGSLRPSCAASGNIFVPFKMGWYRLAPGKERELVASINRGSTTNYADSVKGRFTISRDNAKNTVYLQMISLKPEDTAVYYCAAIAYPDIPTYLDYDSDYFYWDQGTQVTVSS,high polyreactivity
2,QVQLVESGAGLVQAGGSLRLSCAASGHTFYYNTMGLYRQAPGKERELVAVISWSGSRTYYADSVKGRFTISRDYAKNTVYLQMNSLKPEDTAVSYCNAVYSHRREYWGEGTQVTVSS,high polyreactivity
3,QVQLVESGGGLVQGGGSLRLSCAASGSNLYKNPMGWYRPAPGKERELVASITYSGGRTNYADSVKGRFTISRDTAKNTVYLQMNSLKPEDTSVYYCPAAYVYYNPAYRYAPTAVDYDYWGQGTQVTVSS,low polyreactivity
4,QVQLVESGGGLVQAGGSLRLTCAASGFTLGLNAMGWYRQAPGKEREVVAAIRRSAGSTYYADSVKGRFTISRDNAKNTVYLQMNSLKPEDTAVYYCAAGFLWAKYAYGHWGQGTQVTVSS,low polyreactivity
5,QVQLVESGGGLVQAGGSLRLSSADSGRIFSYYAMGGYRQAPGKEREFVATITYGGGSTYYADSVKGRFTISRDNAKNTVYLQMNSLKPEDTAVYYCAARGYSYRGWRMDYWGQGSQVTVSS,high polyreactivity
6,QVQLVESGGGLVQAGGSLRLSCAASGRIFKVNTMGWYRQAPGKVRELVASIRGGGSTNYADSVKGRFTISRDNAKNTVYLQMNSLKPEDTAVYYCAAGTSKPTPIYGYWGQGTQVTGSS,low polyreactivity
7,QVQLVESGGGLVQAGGSLRLSCAASGSIFPYYAMGWYRQAPGKERELVAAITYIGGDTYYADSVKGRFTISRDNAKNTVYLQMNSLKPEETEVYYCNRPSSLAWPWTGSFSRYDYWGQGTQVTVSS,low polyreactivity
8,QVHLVESGGGLVQAGGSLRLSCAASGSTFYYNAMGWYRLAPGKERELVASISYSGDSTYYADSVKGRFTISRVNAKNTVYLQMNSLKPEDTAVYYCNASTSFRSHLGFLYDYWGQGTQVTVSS,high polyreactivity
9,QVQLVESGGGLVQAGGILRLSCAASGITFVRNAMGWYRQAPGKDREFVAAINSIVGRTYYADSVKGRFTISRDNAKNTVYLQMNSLKPEDTAVYDCAADSNVRYGMDYWGLGTQVTVSS,low polyreactivity
10,QVQLVESGGRLVQAGGSLRLSCAASGGTFVVYAMGWYSQARGKARELGAAITWIGDSTYYADSVKGRFTISRDNAKNTVYLQMNSLKPEDTAVYYCNAEGGYYLTEYGYWGQGTQETVSS,low polyreactivity
11,QVQLVESGGGLVQAGGSLRLSCAASGITSRPYVMGGYRQAPGKERELVAAISLTGGRTYYADSVKGRFTISRDNAKNTVYLQMNSLKPEDTAVYYCAAKYSNGSGFDYWGQGTQVTVSS,high polyreactivity
12,QDQLVESGGGLVQAGGSLRLSCAASGRTLYLYAMGWYRQAPGKERELVAGISWSGTSTYYADSVKGRFTISRYNAKNTVYLQMNSLKPEDTAVYYCAADSYPAYLGFVGFDYWGQGTQVTVSS,low polyreactivity
13,QVQLVESGGGLVQAGGSLRLSCAASGINNSVNDMGLYRQAPGKERELVAAISSGDSTNYADSVKGRFTISRDNAKNTVYLQMNSLKPEDTAGYYCAALEGCLTGWQTYDYWGQGTQVTVSS,low polyreactivity
14,QVQLVESGGGLVQAGGSLRLSSAASGSIFDSNALGWYRQARGKERELVAAISLSGGSTYYADSVKGRFTISRDNAKNTVYLQMKSLKPEDTAVYYCAKDGWYEYYWGQGTQVTVSS,low polyreactivity
15,QVQLVESGGGLVQAGGSLRLSCAASGRIIGKYDMGWYRQAPGTERELVAAIRYNGGRTYYADSVKGRFTISRDNAKNTVYLQMNRLKPEDNAVYYCATRTYRVDPEFGYWGQGTEVTVSS,high polyreactivity
16,QVQLVESGGGLDQAGGSLPLSCAASGLTFSSYAMGWYRQAPGKESELVATITSSGGDNTNYADSVKGRFTISRDNAKNTVYLQMNSLKPEDTAVYYCNKEGQQSYRWRMDYWGQGTQVTVSS,low polyreactivity
17,QVQLVESGGGLVQAGGSLRLSCAASGSTFGYYAMGWYRQAPGKERELVASITWGGGSTYYADSVKGRFTISRDNAKNTVYLQMNSLNPEDTAVYYCAATILGGTWGYGSYTYYYWGQGTQVTVSS,low polyreactivity
18,QVQLVESGGGLVQAGRSLRLSCAASGRIFTPNAMGWYRQAPGKERELVAAISSSGRTSYADSLKGRFTNTSDNAKITVYLQMNSLKPEDTAVYYCNATWRWTRRGYDYWGQGTQVTVSS,low polyreactivity
19,QVQLVESGGGLVQAGGSLRLSCAASGRTFQYNTMGWYRQAPGKERELVAAISWSGGRTYYADSVKGRFTISRDNAKNTVYLQMNSLKPEDTAVYYCAADGTPEIRDNYWGQGTQVTVSS,high polyreactivity
20,QVQLVESGGGLVQAGGSLRLSCAASGITFWKYAMGWYRQAPGKERELVAAISGRGGSTYYADSVKGRFTISRDNAKNTVYLQMNSLKPEDTAVYYCAVGYRGWDGYWGQGTQVTVSS,high polyreactivity
21,QVHLVESGGGLVQAGGSLRLSCPASGITFEHNAMGWYRQSPGKERELVAAIRWSGGSTYYADSVKGRFTISRDYAKYTVYLQMNSLKPEDTAVYYCAAYKPSTRRYDYWGQGTQVTVSS,high polyreactivity

row,Sequence,polyreactivity (PSR sort gate)
1,QVQLVETGGGLVQAGGSLLLSSAASGIIIRYYGMGCYGQAPGTERELVARIRWTGGSTYSADSVKGRFTISRDNAKNTVYLQMNSLKPEDTAVYYCAADIWQYSRIANYHPFDYWGQGTQVTVSS,low polyreactivity
2,QVHLVESGGGLVQAGGSLRLSCAASGSTFRPYAMGWYRQAPGKERELVAAITGSGGSTYYADSVKGRFTISRDNAKNTVYLQMISLKPEDTAVYYCNAVSTWRYYYWGQGTQVTVSS,high polyreactivity
3,QVQLVESGGGLVQAGGSLRLSCADSGRTFRGNAMGWYRQAPGKERELVAAISWSGDSTYYADSVKGRFTISRDNAKNSVYLQMNSLKPEDTAVYYCNRDYGLQRYRGWYQYNYWGQGTQVTVSS,low polyreactivity
4,QVHLVESGGGLVQAGGSRRLSCAASGRTVARPAMGWYRQAPGKERELVATITIGGRTYYADSVKGRFTISRDNAKNTVYLQMNSLKPEDTAVYYCAKRISGYRGDYWGQGTQVTVSS,high polyreactivity
5,QVQLVESGGGLVQAGGSLRLSCAASGRPFYKNTMGWYRQAPGKEREFVATISASGGSTYYADSVKGRFSSSRDNATNTVYLQMNSLKPEDTAVYYCAKRDYAGYAVHIGGDMNYWGQGTQVTVSS,low polyreactivity
6,QVQLVESGGGLVQAGGSLRLSCAASGSTFITNTMGWYRQAPGKERELVAAISKSGGSTYYADSVKGRFTISRDNAKNTVYLKMNSLKAEDTAVYYCAADIYVRDRGVKYDYWRQGTQVTVSS,low polyreactivity
7,QVQLVETGGGLVQAGGSLRLSCAASARTFVNYAMGWYRQAPGKEREFVAAITNGGRTNYADSVKGRFTISRDNAKNTVYLQMNSLKQEDTAVYYCAARYRFGGIRRFNYWGQGTQVTVSS,high polyreactivity
8,QVQLVESGGGLVQAGGSLRLSCAASGLTFHRYAMGWYRQAPGKERELVADISSGDSTNYADSVKGRFTISRDNAKNTVYLQMTSLKPEDTAVYYCNTDGYIYRYRFDYWGQGTQVTVSS,low polyreactivity
9,QVQHVESGRGLVPAGGSLRLSCAASGSTFNLNAMGWYRQAPGKERELVAAISWRGDSTSYADSVKGRFTISRDNAKNTVYLQMNSLKPEDTAVYFCATAHDSAFYRYWYVPSEYNYWGQGTQVTVSS,low polyreactivity
10,QVQLVESGGGLVQAGGSLRLSCAASGSIFGWYAMGWYRQAPGKERELVAAIDSATSTYYADSVKGRFTISRDNAKNTVYLQMNSLKPEDTAFYYCAAVQLYQKHQITYVAHEYWGQGTQVTVSS,low polyreactivity
11,QVQLVESGGGLVQAGGSLRLSCAASGRTFTSYAMGWYRQAPGKERELVAAISGSGSRTYYADSVKGRFTISRDNAKNTVYLQMNSLKPEDTAVYYCAVSYTTYYHRYYYWGQGTQVTVSS,high polyreactivity
12,QVQLVESGGGLVQAGGSLRLSCAASGIIFGVYAMGWYRQAPGKERELVAAISWTGGSTFYADSVKGRFTISRDNAKITVYLQMNILKPEDTAVYYCAVDYWSGITWVEYWGQGTQVTVSS,high polyreactivity
13,QVQLVESGGGLVQAGGSLRLSCAASGFTFNWYTMGWYRQAPGKERELVAAIRGSGSRTYYADSVKGRFTISRDNAKNTVYLQMNSLKPEDTAVYYCATDYGLYSTWGRYYRYRYDYWGQGTQVTVSS,high polyreactivity
14,QVQLVESGGALDQAGGSLRLSCAASGSTFYYYAMGWYRQAPGKERELVAAISTSDGSTYYADSVKGRFTISRDNAKNTVYLQMNSLKPEDTAVYYCAADSHDRFPSYYYWGQGTQVTVSS,low polyreactivity
15,QVQLVESGGGLVQAGGSLRLSCAASGFIFDPYAMGWYRQAPGKERELVASINTRGDRTSYADSVKGRFTISRDNAKNTVYLQMNSLKPEDTAVYYCNADAVDQVGPDDDYWGQGTQVTVSS,low polyreactivity
16,QVQLVESGGGLVQAGGSLRLSCAASGSIFPGNAMGWYRQAPGKERELVAVIDFSGASTYYADSVKGRFTISRDNAKNTVYLQMNSLKPEDTADYWGQGSQVTVSS,low polyreactivity
17,QVQHVESGGGLVQAGGSLRLRCAASGFTFRRYALGWYRQAPGKERELVAAISGSGGSTYYADSVKGRFTISRDKAKNTVYLQMNSLKPEDTAVYYCNALLRAIAEYDYWGQGTQVTVSS,high polyreactivity
18,QVQLVESGGGLVQAGGSLRLSCAASGFIFYYYTMGWYRPAPGKERELVAAISRGGGSTYYADSVKGRFTISRDNAKNTVYLQMNSLKPEDTAVYYCALTDRRLGAHQGDYWGQGTQVTVSS,high polyreactivity
19,QVQLVESGGGLVQAGGSLRLSCAASGFIFRRYAMGWYRQAPGKERELVAAIRSDGSTNYADSVKGRFTISRDNAKNTVYLQMNSLKPEDTAVYDCAATYYSYTWFSQYYYWGQGTQVTVSS,high polyreactivity
20,QVQLVESGGGLVQVGGSLRLSCAASGITFSYYSMGWYRPAPGKERELVAAISQRGGSTYYADSVKGRFTISRDNAKNTVYLQMNSLKPEDTAVYYCAAAYRGANYGYGFDYWGQGTQVTVSS,high polyreactivity
